Experimental data taken from patent US20110243959A1, “MODULATING NEURONAL PLASTICITY AND TREATMENT OF NEURONAL LOSS BY MODULATIONG WNT7A OR WNT7B MODULATION” (priority 2008, published 2011).

How the values were obtained:
Wnt signaling [1] = experiment: Application to organotypic slice cultures; assay type: cell-based; settings: organotypic slice cultures (not shown)
Text: Organotypic slice cultures were based on the Stoppini method (Stoppini et al., 1991), as described (De Paola et al., 2003).
Immunocytochemistry preparations were imaged on an LSM510 confocal microscope (Zeiss) using a 40× (1.4) oil-immersion objective. Imaging of organotypic slice cultures was as described. Briefly, images were acquired with an LSM 510 (Zeiss), using a 40× (1.4) oil objective (Zeiss); image sizes were 2048×2048, and stepsizes were 0.4 μm. Where indicated, drugs were replaced every 3-4 days, together with fresh medium.
(§1) Microscope images were processed and analysed using Metamorph 6.1, Imaris 4.2 (Bitplane AG) and ImageJ softwares. We defined LMTs as mossy fiber terminal regions of >2.5 μm diameter in CA3a-c, which were arranged either en-passant, or as side structures connected to the mossy fiber axon or another LMT by an axonal process (satellite). For the quantification of LMT sizes in 3D (volumes) at least three confocal 3D stacks were acquired in CA3b for each preparation (three mice per condition), and analyzed using Imaris 4.2 software.

Wnt signaling [2] = experiment: Local application into CA3 in mice housed under control conditions; assay type: in vivo
Text: (§2) For enriched environment (EE) experiments, male mice were housed in groups of 3-4 littermates in large (rat) cages equipped with 3 running wheels per cage, toys and hiding spaces. Control mice were male littermates (3-4), which were housed individually in small standard cages without special equipment. Unless stated otherwise, EE was started at 1 month of age, and lasted 20 days.
Mature recombinant sFRP-1 was obtained from R&D systems and dissolved in PBS/0.1% BSA (vehicle: PBS/0.1% BSA) to a working concentration of 50 μg/ml. Wnt agonist (Calbiochem) was dissolved in a small volume of DMSO and then further diluted with PBS to a final concentration of 10 mM (DMSO<1:1000). PBS/DMSO solution alone was used as vehicle for control injections. Antibodies were from the following sources: Bassoon, anti-mouse Alexa Fluor 546 and 647, anti-goat Alexa Fluor 546 and 633, donkey anti-goat Alexa Fluor 568 (Molecular Probes); NeuN anti-mouse (CHEMICON); anti-human Wnt7a/b antibody (R&D, P56706). […] Reagents, with their working concentrations were: TTX (Laxotan, 1 μM, stock in acetate buffer), Bicuculine (SIGMA, 20 μM in water), CGP (SIGMA, 0.4 μM in water), Picrotoxin (SIGMA, 20 μM in water).
Injection canulas were implanted unilaterally (left hemisphere) above the CA3 b-a region of Isofluorane-anesthetized mice using stereotactical guidance. Canulas were fixed with dental cement. Implantation coordinates from Bregma (implantation 0.5 mm above injection site as the needle surpassed canula by 0.5 mm): ante-posterior −2.06 mm, lateral 2.5 mm, dorso-ventral −1.4 mm. Animals were allowed to recover for 3 days after surgery before drug treatments started.
(§3) Animals were injected under Isofluorane anesthesia with 300 nl of either drug (treated) or vehicle (control) through a small needle guided through the implanted canulas every 3-4 days for 12-21 days (depending on experiment). Canula positions were confirmed in all analyzed sections to be above Ca3b-a without harming the mossy fiber projection or CA3 pyramidal cell dendrites.
as §1
Individual LMT volumes contained in these cubes were measured using the Surpass/ Isosurface function of the software. Non-saturating imaging conditions were chosen for all size analyses. An intensity threshold of 300 was chosen to selectively analyze LMTs (excluding axons and other smaller objects). All identified objects were verified by eye inspection. Generally, the settings for the analysis were identical for all samples of all ages, but in some cases we verified the settings through internal calibration using the diameters and signal intensities of axons. After these measurements, LMTs were grouped according to their volumes. The volumes of all LMTs in one group were added up, and expressed as percentage of the total volume of all LMTs measured per cube. For the quantification of LMT sizes in 2D, MIPs of 3D stacks were created in ImageJ, and LMT surfaces (areas in μm^2) were measured. For all samples, LMTs were inspected by eye in 3D to be identified as individual LMTs and not fused with other LMTs. LMT numbers were determined in CA3b as follows: the sum of all mGFP-positive LMTs within a region of interest (ROI; a MIP) was divided by the number of mGFP-labeled axons within that ROI, and by the length along CA3 included in the ROI. LMT numbers were then normalized to 100 μm axon length. Wnt7a/b staining intensities were measured on single confocal planes. […]

Wnt signaling [3] = experiment: sFRP-1 applied in Rab3a-/- mice housed under EE conditions; assay type: in vivo
Text: Transgenic mice expressing membrane-targeted GFP in only a few neurons (Thy1-mGFPs, L21 and L15) were as described (De Paola et al., 2003). Transgenic males were crossed over more than ten generations with non-transgenic F1 offsprings from C57BI6×BalbC crosses, so that the genetic background of the mice was 50% each of C57BI6 and BalbC. Rab3a knockout mice (B6; 129S-Rab3a^tm1Sud/J) were obtained from the Jackson Laboratory and backcrossed into Thy1-mGFP (L21) mice.
For enriched environment (EE) experiments, male mice were housed in groups of 3-4 littermates in large (rat) cages equipped with 3 running wheels per cage, toys and hiding spaces. […]
as §3
(§4) Microscope images were processed and analysed using Metamorph 6.1, Imaris 4.2 (Bitplane AG) and ImageJ softwares. […] For the quantification of LMT sizes in 3D (volumes) at least three confocal 3D stacks were acquired in CA3b for each preparation (three mice per condition), and analyzed using Imaris 4.2 software. […]

Wnt signaling [4] = experiment: sFRP-1 applied locally into hippocampal CA3 through a canule in mice housed under enriched environment (EE) conditions; assay type: in vivo; settings: sFRP-1 present in CA3 during entire EE procedure, vs vehicle; no effect in dentate gyrus
Text: as §2
Mature recombinant sFRP-1 was obtained from R&D systems and dissolved in PBS/0.1% BSA (vehicle: PBS/0.1% BSA) to a working concentration of 50 μg/ml. Wnt agonist (Calbiochem) was dissolved in a small volume of DMSO and then further diluted with PBS to a final concentration of 10 mM (DMSO<1:1000). […]
as §3, §4

[5] = local into CA3, control housing

COc1cccc(-c2cnc(N)nc2NCc2ccc3c(c2)OCO3)c1 [Wnt agonist, 2-amino-4-[3,4-(methylenedioxy)benzyl-amino]-5-(3-methoxyphenyl)pyrimidine, reference compound]
LMT satellite numbers (Wnt signaling [1]): increases
AZ densities at LMTs (Wnt signaling [2]; [5]): increased
stratum lucidum AZ numbers (Wnt signaling [2]; [5]): increased
stratum lucidum LMT numbers (Wnt signaling [2]; [5]): increased

B1: sFRP-1: Mature recombinant secreted frizzled-related protein 1 from R&D systems, used as local inhibitor of Wnt signaling (protein, UniProt Q8N474 32-314, looked up)
Secreted frizzled-related …: SEYDYVSFQSDIGPYQSGRFYTKPPQCVDIPADLRLCHNVGYKKMVLPNLLEHETMAEVKQQASSWVPLLNKNCHAGTQVFLCSLFAPVCLDRPIYPCRWLCEAVRDSCEPVMQFFGFYWPEMLKCDKFPEGDVCIAMTPPNATEASKPQGTTVCPPCDNELKSEAIIEHLCASEFALRMKIKEVKKENGDKKIVPKKKKPLKLGPIKKKDLKKLVLYLKNGADCPCHQLDNLSHHFLIMGRKVKSQYLLTAIHKWDKKNKEFKNFMKKMKNHECPTFQSVFK
effect of EE on LMT complexities (Wnt signaling [3]): effectively suppressed the effect of EE
effect of EE on LMT numbers (Wnt signaling [3]): effectively suppressed the effect of EE
contents of AZs per LMT (Wnt signaling [2]; [5]): reduction
stratum lucidum AZ numbers (Wnt signaling [2]; [5]): reduction
fractions of LMTs with satellites (Wnt signaling [2]; local into CA3, control housing (not shown)): reduction
effect of the enriched housing conditions on AZ numbers (Wnt signaling [4]): effectively suppresses the effect of the enriched housing conditions
effect of the enriched housing conditions on satellite numbers (Wnt signaling [4]): effectively suppresses the effect of the enriched housing conditions
